In the supplement of paper PMC10567573:

B1: CAMK2A (parent)
chain: CIQQILEAVLHCHQMGVVHRDLKP
B2: TEKT4 (parent)
chain: SEVEELNMSLTALREKLLEAEQSL

Variants of: B1
Assay: protein stability index of a GFP-peptide fusion (GPS, HEK-293T) (PSI 1-6); higher = more stable
Settings: c terminus: a fixed tail appended
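Further: lentivirally expressed fusions sorted by FACS into six bins by GFP to DsRed ratio, PSI derived from sequencing read proportions per bin multiplied by bin number.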

Protein stability index of substitutions, site by site:
C1: F 3.55, D 2.12, H 1.56

Variants of: B2
Assay: as above
Settings: c terminus: a fixed tail appended

Protein stability index, by site and new letter:
S9: R 3.13, H 3.28, A 3, D 3.57, E 2.95, T 2.67, F 2.28, W 2.85, Y 2.33, V 1.66, L 2.3, C 2.6, N 3.06, G 2.61, P 2.85, M 2.4, K 2.82, I 2.14
L13: G 5.15, R 4.83, E 5.42, K 4.76, F 4.49, Y 4.34, S 4.8, W 3.18, C 4.68, H 5.21, D 5.55, V 4.55, P 4.47, N 4.87, I 4.14, M 3.32, T 5.4, Q 4.47, A 4.86
N7: R 3.92, L 2.31, T 2.63, M 2.31, Q 2.67, K 2.84, Y 3.42, V 1.95, P 3.42, S 2.97, W 2.1
R14: D 5.52, S 4.41, I 2.83, N 4.79, G 4.19, F 2.42, M 2.02, P 5.3, K 3.94, T 3.62, Y 2.46, Q 3.99, C 3.37, V 2.07, E 4.63, L 2.05, W 2.58, A 3.48, H 3.87
Q22: H 2.5, L 1.96, W 1.89, F 1.75, E 3.37, A 2.81, N 2.54, C 2.37, I 1.72, K 3.36, Y 1.94, D 2.48, T 3.64, S 3.44, R 2.64, G 3.6, V 2.23, P 3.99, M 1.91
T11: E 4.1, F 1.76, A 3.49, G 3.02, R 3.1, W 2.09, C 2.82, Q 3.65, D 4.13, P 3.31, L 2.8, Y 1.81, M 2.51, N 3.02, K 3.15, S 2.92, V 2.36, I 2.35, H 2.5
K16: G 3.58, N 1.72, M 2.26, Y 2.67, H 2.83, I 2.92, D 4.25, F 1.99, S 3.74, R 3.06, V 3.11, A 3.42, Q 2.83, P 5.38, L 2.85, T 2.83, E 3.19, C 3.24, W 3.27
A20: V 4.41, I 3.55, R 4.28, E 5.04, K 4.9, D 4.72, F 3.79, H 3.93, C 4, S 4.18, Y 3.88, Q 4.32, P 4.76, L 3.98, T 4.26, M 3.73, G 4.88, W 2.95, N 4.52
L18: M 2.71, I 2.39, G 4.45, R 3.67, C 4.07, V 3.94, T 4.54, S 4.65, F 3.32, P 5.43, Q 4.23, Y 3.92, H 3.84, W 2.86, E 5.08, D 5.37, N 4.11, K 4.74
E19: F 2.24, V 3.66, P 4.07, Q 2.36, I 2.31, Y 2.62, T 3.6, R 2.78, A 2.69, C 3.04, M 2.92, D 3.49, K 3.97, L 2.39, N 3.71, G 3.95, H 3.26, W 2.26, S 3.41
A12: Y 2.47, V 3.06, M 1.9, H 2.76, C 2.15, N 1.73, S 2.46, E 2.38, F 2.37, G 2.56, T 2.3, L 2.27, R 2.54, P 4.15, D 3.48, I 2.36, W 2.56, K 3.17, Q 2.29
L10: G 3.74, E 3.55, R 3.97, W 2.68, T 3.29, I 1.9, H 3.26, A 3.75, M 2.64, D 4.03, Y 2.93, S 3.64, N 4.09, K 3.73, V 2.25, F 3.23, Q 4.14, C 3.15
L17: W 3.41, P 5.42, G 5.38, A 5.53, S 4.9, M 2.51, Q 4.98, I 4.28, K 5.36, F 3.69, C 4.21, H 5.01, E 5.46, R 3.69, D 5.26, Y 4.05, N 4.89, V 4.45, T 5.16
E15: P 3.76, A 2.2, S 2.27, H 2.94, N 2.54, F 2.27, C 2.24, V 2.3, Q 2.52, M 2.18, W 1.59, D 2.97, Y 2.15, L 2.1, G 3.04, K 3.38, I 2.62, R 3.11, T 2.44
L24: P 4.99, G 5.01, K 5.14, W 3.74, Q 4.78, A 4.18, D 5.19, E 4.69, C 3.82, H 4.41, N 4.97, S 4.63, F 4.51, M 4.18, Y 3.82, R 4.23, V 2.25, I 3.1, T 4.97
M8: K 2.77, L 3.36, S 2.81, R 2.12, E 3.29, I 3.17, W 2.28, C 2.27, A 2.9, Y 2.37, D 3.5, N 2.41, T 3.25, F 3.02, P 3.99, G 4.32, Q 2.56, H 2.96, V 3.77
S23: F 2.48, D 3.36, Q 2.72, Y 2.33, P 4.45, R 2.9, G 3.66, E 3.93, N 3.21, M 2.74, W 2.75, T 2.77, L 2.37, C 2.39, H 2.31, A 2.47, I 2.74, K 3.17, V 2.87
E21: D 4.83, C 2.23, Q 3.44, V 2.36, N 3.34, R 3.26, T 2.97, A 2.8, H 3.06, M 3.16, Y 2.77, F 2.62, I 2.06, S 2.94, G 3.51, P 2.45, W 2.36, L 2.81, K 3.42
